Here are results for 1 protein from paper PMC9309889, “Cryo-EM Structure of an Atypical Proton-Coupled Peptide Transporter: Di- and Tripeptide Permease C” (Frontiers in Molecular Biosciences, 2022).

This data set deals with the molecule itself. Put plainly: cryo-EM structure; DtpC-Nb26 complex in 0.015% DDM, 100 mM NaCl, 10 mM HEPES pH 7.5, 0.5 mM TCEP; inverted dimer at 3.0 Å, local focused refinement on one transporter at 2.7 Å.

B1: Di- and tripeptide permease C (DtpC), wild type (natural protein, Escherichia coli, UniProt P39276 1-485, looked up)
chain: MKTPSQPRAIYYIVAIQIWEYFSFYGMRALLILYLTHQLGFDDNHAISLFSAYASLVYVTPILGGWLADRLLGNRTAVIAGALLMTLGHVVLGIDTNSTFSLYLALAIIICGYGLFKSNISCLLGELYDENDHRRDGGFSLLYAAGNIGSIAAPIACGLAAQWYGWHVGFALAGGGMFIGLLIFLSGHRHFQSTRSMDKKALTSVKFALPVWSWLVVMLCLAPVFFTLLLENDWSGYLLAIVCLIAAQIIARMMIKFPEHRRALWQIVLLMFVGTLFWVLAQQGGSTISLFIDRFVNRQAFNIEVPTALFQSVNAIAVMLAGVVLAWLASPESRGNSTLRVWLKFAFGLLLMACGFMLLAFDARHAAADGQASMGVMISGLALMGFAELFIDPVAIAQITRLKMSGVLTGIYMLATGAVANWLAGVVAQQTTESQISGMAIAAYQRFFSQMGEWTLACVAIIVVLAFATRFLFSTPTNMIQESND
notes: Di- and tripeptide permease C (DtpC, YjdL) of Escherichia coli; full-length cDNA amplified from the E. coli genome, cloned into pNIC-CTHF; The His tag was cut off with TEV protease; also called YjdL; DtpC WT; source: E. coli C41(DE3), purified in DDM (Ni-NTA, TEV cleavage, negative IMAC, SEC); not shown: His-Tag, C-terminal, cleaved
On to B1, for which the “stoichiometry N” value was 2.
